In patent publication US20210324360:

Target: SUMO-modified granzyme B
Sequence (chain, as listed by the source): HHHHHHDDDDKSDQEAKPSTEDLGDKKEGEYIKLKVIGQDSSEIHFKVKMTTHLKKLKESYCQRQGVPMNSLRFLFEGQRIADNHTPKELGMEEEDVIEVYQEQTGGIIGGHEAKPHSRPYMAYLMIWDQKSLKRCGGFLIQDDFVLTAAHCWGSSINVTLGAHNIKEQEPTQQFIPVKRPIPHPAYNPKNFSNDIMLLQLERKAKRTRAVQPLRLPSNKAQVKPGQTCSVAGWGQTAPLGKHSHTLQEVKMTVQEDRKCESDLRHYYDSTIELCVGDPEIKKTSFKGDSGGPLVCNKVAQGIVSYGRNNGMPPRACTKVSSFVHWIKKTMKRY

B1: Sentrin-specific protease 1 (SENP1) (protein)
chain: MDDIADRMRMDAGEVTLVNHNSVFKTHLLPQTGFPEDQLSLSDQQILSSRQGHLDRSFTCSTRSAAYNPSYYSDNPSSDSFLGSGDLRTFGQSANGQWRNSTPSSSSSLQKSRNSRSLYLETRKTSSGLSNSFAGKSNHHCHVSAYEKSFPIKPVPSPSWSGSCRRSLLSPKKTQRRHVSTAEETVQEEEREIYRQLLQMVTGKQFTIAKPTTHFPLHLSRCLSSSKNTLKDSLFKNGNSCASQIIGSDTSSSGSASILTNQEQLSHSVYSLSSYTPDVAFGSKDSGTLHHPHHHHSVPHQPDNLAASNTQSEGSDSVILLKVKDSQTPTPSSTFFQAELWIKELTSVYDSRARERLRQIEEQKALALQLQNQRLQEREHSVHDSVELHLRVPLEKEIPVTVVQETQKKGHKLTDSEDEFPEITEEMEKEIKNVFRNGNQDEVLSEAFRLTITRKDIQTLNHLNWLNDEIINFYMNMLMERSKEKGLPSVHAFNTFFFTKLKTAGYQAVKRWTKKVDVFSVDILLVPIHLGVHWCLAVVDFRKKNITYYDSMGGINNEACRILLQYLKQESIDKKRKEFDTNGWQLFSKKSQEIPQQMNGSDCGMFACKYADCITKDRPINFTQQHMPYFRKRMVWEILHRKLL
How did the “GrB activity (cleavage of Ac-IEPD-pNA, absorbance at 405 nm) and western blot after co-incubation with Mock-transfected or SENP1-overexpressing HEK lysate” value turn out when B1 was run?
Its value is “SENP1 activates SUMO-GrB”.
